Test results reported in paper PMC9482650, “Quantitative fragmentomics allow affinity mapping of interactomes” (Nature Communications, 2022).

T1: DLG3_1, Q92796
T1 sequence (Q92796 125-227, limits assumed, looked up): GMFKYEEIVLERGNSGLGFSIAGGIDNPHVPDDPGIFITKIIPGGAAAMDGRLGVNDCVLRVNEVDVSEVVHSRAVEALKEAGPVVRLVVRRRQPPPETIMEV

T2: DLG3_3, Q92796
T2 sequence (Q92796 374-475, limits assumed, looked up): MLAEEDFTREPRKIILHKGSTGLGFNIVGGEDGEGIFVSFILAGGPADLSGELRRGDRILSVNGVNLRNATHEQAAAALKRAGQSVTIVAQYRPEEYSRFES

T3: DVL3, Q92997
T3 sequence (Q92997 244-331, limits assumed, looked up): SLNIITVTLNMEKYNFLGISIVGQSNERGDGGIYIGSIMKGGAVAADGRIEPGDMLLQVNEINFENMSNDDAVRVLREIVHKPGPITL

T4: LIN7A, O14910
T4 sequence (O14910 103-200, limits assumed, looked up): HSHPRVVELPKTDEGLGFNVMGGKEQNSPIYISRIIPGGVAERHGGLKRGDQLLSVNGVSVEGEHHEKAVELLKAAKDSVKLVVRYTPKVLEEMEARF

T5: LIN7B, Q9HAP6
T5 sequence (Q9HAP6 88-185, limits assumed, looked up): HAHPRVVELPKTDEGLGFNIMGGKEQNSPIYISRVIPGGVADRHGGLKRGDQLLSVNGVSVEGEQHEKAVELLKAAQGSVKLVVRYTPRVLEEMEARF

T6: MPDZ_12, O75970
T6 sequence (O75970 1857-1958, limits assumed, looked up): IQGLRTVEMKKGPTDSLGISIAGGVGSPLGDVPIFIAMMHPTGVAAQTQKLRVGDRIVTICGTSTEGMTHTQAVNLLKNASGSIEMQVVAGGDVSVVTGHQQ

T7: PCLO, Q9Y6V0
T7 sequence (Q9Y6V0 4491-4600, limits assumed, looked up): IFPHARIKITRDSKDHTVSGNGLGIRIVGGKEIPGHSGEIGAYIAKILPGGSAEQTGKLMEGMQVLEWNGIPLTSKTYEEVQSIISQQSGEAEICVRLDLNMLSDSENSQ

T8: PTPN13_1, Q12923
T8 sequence (Q12923 1088-1188, limits assumed, looked up): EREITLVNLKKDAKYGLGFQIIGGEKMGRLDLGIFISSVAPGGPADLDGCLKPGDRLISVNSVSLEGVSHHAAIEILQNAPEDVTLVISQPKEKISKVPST

T9: SHANK1, Q9Y566
T9 sequence (Q9Y566 658-767, limits assumed, looked up): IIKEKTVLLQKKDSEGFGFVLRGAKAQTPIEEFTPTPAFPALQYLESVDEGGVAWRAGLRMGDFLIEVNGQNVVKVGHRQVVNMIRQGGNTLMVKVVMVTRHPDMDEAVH

T10: TX1BP3, O14907
T10 sequence (O14907 10-122, limits assumed, looked up): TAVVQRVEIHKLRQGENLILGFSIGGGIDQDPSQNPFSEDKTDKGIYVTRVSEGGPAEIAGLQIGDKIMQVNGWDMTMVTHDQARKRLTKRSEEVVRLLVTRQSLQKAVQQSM


Experiments:
Experiment in all cases: holdup assay
Parameters in all cases: key: below the threshold = too weak to quantify, mostly under pKd 3.1 to 4
Settings in all cases: plain residues with an end cap or a label only (N-terminal biotin on a linker: ado-ado)
[1] = target: ARHGEF12, Q9NZN5-2
[2] = target: DLG1_2, Q12959
[3] = target: T1, DLG3_1, Q92796
[4] = target: T2, DLG3_3, Q92796
[5] = target: DLG5_1, Q8TDM6
[6] = target: T3, DVL3, Q92997
[7] = target: FRMPD2_1, Q68DX3
[8] = target: GOPC, Q9HD26
[9] = target: GORASP2, Q9H8Y8
[10] = target: GRASP, Q7Z6J2
[11] = target: GRID2IP_1, A4D2P6
[12] = target: Inadl_1, Q8NI35
[13] = target: Inadl_10, Q8NI35
[14] = target: Inadl_5, Q8NI35
[15] = target: Inadl_9, Q8NI35
[16] = target: T4, LIN7A, O14910
[17] = target: T5, LIN7B, Q9HAP6
[18] = target: LNX1_1, Q8TBB1
[19] = target: MAGI2_2, Q86UL8
[20] = target: MAGI2_6, Q86UL8
[21] = target: MAST2, Q6P0Q8
[22] = target: T6, MPDZ_12, O75970
[23] = target: NHERF2_2, Q15599
[24] = target: NHERF4_4, Q86UT5
[25] = target: T7, PCLO, Q9Y6V0
[26] = target: T8, PTPN13_1, Q12923
[27] = target: T9, SHANK1, Q9Y566
[28] = target: T10, TX1BP3, O14907

Sequence of GRID2IP_1, A4D2P6 (A4D2P6 1-87): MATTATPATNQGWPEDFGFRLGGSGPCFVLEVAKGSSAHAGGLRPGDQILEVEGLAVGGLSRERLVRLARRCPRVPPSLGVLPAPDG
Sequence of DLG1_2, Q12959 (Q12959 314-412): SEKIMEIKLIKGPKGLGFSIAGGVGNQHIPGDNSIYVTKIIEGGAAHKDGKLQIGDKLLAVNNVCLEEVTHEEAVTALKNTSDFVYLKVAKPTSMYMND
Sequence of FRMPD2_1, Q68DX3 (Q68DX3 770-861): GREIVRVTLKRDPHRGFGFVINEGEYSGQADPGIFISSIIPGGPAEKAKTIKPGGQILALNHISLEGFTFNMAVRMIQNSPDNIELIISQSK
Sequence of MAGI2_2, Q86UL8 (Q86UL8 410-522): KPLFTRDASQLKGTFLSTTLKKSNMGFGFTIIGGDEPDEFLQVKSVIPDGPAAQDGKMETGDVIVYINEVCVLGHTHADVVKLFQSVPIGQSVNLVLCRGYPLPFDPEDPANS
Sequence of Inadl_9, Q8NI35 (Q8NI35 1530-1615): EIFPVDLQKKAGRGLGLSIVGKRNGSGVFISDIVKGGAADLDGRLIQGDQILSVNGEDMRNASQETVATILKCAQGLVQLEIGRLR
Sequence of ARHGEF12, Q9NZN5-2 (Q9NZN5 other isoform, or with tags, fused parts or gaps): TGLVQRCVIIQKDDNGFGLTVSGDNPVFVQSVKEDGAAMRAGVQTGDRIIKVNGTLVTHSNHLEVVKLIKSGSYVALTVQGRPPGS
Sequence of Inadl_1, Q8NI35 (Q8NI35 113-229): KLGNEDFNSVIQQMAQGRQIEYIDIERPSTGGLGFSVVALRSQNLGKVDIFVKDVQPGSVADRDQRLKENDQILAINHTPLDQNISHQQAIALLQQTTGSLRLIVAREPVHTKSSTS
Sequence of LNX1_1, Q8TBB1 (Q8TBB1 261-371): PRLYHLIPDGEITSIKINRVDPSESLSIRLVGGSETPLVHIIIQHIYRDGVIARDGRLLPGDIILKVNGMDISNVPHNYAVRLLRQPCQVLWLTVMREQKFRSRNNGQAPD
Sequence of Inadl_10, Q8NI35 (Q8NI35 1673-1763): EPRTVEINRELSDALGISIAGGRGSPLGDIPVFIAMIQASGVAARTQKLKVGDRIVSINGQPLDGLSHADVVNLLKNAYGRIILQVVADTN
Sequence of NHERF2_2, Q15599 (Q15599 142-238): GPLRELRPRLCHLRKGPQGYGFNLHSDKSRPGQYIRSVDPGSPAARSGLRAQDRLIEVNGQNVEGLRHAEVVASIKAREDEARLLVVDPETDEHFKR
Sequence of DLG5_1, Q8TDM6 (Q8TDM6 617-713): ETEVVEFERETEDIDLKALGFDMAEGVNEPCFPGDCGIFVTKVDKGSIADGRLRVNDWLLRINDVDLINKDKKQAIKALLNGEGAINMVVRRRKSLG
Sequence of NHERF4_4, Q86UT5 (Q86UT5 464-550): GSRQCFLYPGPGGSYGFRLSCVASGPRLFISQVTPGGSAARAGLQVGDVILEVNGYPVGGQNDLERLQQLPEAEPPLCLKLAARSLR
Sequence of MAGI2_6, Q86UL8 (Q86UL8 1141-1229): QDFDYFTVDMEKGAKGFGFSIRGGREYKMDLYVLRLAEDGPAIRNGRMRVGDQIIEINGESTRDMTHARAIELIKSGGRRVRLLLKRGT
Sequence of MAST2, Q6P0Q8 (Q6P0Q8 1099-1202): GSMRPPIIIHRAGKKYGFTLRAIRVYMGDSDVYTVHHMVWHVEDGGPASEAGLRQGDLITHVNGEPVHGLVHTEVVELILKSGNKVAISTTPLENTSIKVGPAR
Sequence of GRASP, Q7Z6J2 (Q7Z6J2 96-193): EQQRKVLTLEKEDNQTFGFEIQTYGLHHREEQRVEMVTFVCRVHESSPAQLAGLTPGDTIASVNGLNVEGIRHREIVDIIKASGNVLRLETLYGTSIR
Sequence of Inadl_5, Q8NI35 (Q8NI35 673-780): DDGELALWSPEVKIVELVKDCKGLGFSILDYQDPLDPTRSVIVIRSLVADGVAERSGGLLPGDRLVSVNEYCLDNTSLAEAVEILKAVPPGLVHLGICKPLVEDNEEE

Binder	pKd [1]	pKd [2]	pKd [3]	pKd [4]	pKd [5]	pKd [6]	pKd [7]	pKd [8]	pKd [9]	pKd [10]	pKd [11]	pKd [12]	pKd [13]	pKd [14]	pKd [15]	pKd [16]	pKd [17]	pKd [18]	pKd [19]	pKd [20]	other results
KIEDVEITLV [FCHSD2, O94868]	3.85	4.3	below the threshold	below the threshold	3.52	below the threshold	below the threshold	4.09	4.01	5.5	below the threshold	below the threshold	below the threshold	below the threshold	3.68	below the threshold	below the threshold	below the threshold	3.77	4.24	pKd [21]: 5.63; pKd [22]: below the threshold; pKd [23]: 3.86; pKd [24]: below the threshold; pKd [25]: below the threshold; pKd [26]: below the threshold; pKd [27]: 4.1; pKd [28]: 3.98
MQILSKPEFI [NPSR1, Q6W5P4]	below the threshold	below the threshold	below the threshold	below the threshold	below the threshold	3.61	below the threshold	below the threshold	4.61	3.68	below the threshold	below the threshold	below the threshold	3.53	3.64	below the threshold	3.81	below the threshold	below the threshold	below the threshold	pKd [21]: below the threshold; pKd [22]: 3.56; pKd [23]: below the threshold; pKd [24]: below the threshold; pKd [25]: below the threshold; pKd [26]: below the threshold; pKd [27]: below the threshold; pKd [28]: below the threshold
STYCDYTIEI [FAM71C, Q8NEG0]	3.76	below the threshold	below the threshold	below the threshold	below the threshold	4.01	below the threshold	below the threshold	4.41	3.69	below the threshold	3.56	below the threshold	below the threshold	4.19	below the threshold	below the threshold	below the threshold	below the threshold	below the threshold	pKd [21]: 5.12; pKd [22]: below the threshold; pKd [23]: below the threshold; pKd [24]: 4.68; pKd [25]: below the threshold; pKd [26]: below the threshold; pKd [27]: below the threshold; pKd [28]: below the threshold
KEKASTETEC [TRPM1, Q7Z4N2]	3.58	4.23	below the threshold	below the threshold	below the threshold	below the threshold	below the threshold	below the threshold	below the threshold	below the threshold	below the threshold	below the threshold	below the threshold	below the threshold	below the threshold	below the threshold	3.77	below the threshold	below the threshold	below the threshold	pKd [21]: 4.78; pKd [22]: below the threshold; pKd [23]: below the threshold; pKd [24]: below the threshold; pKd [25]: below the threshold; pKd [26]: below the threshold; pKd [27]: below the threshold; pKd [28]: below the threshold
